Data reported in the DeepSol protein solubility set.

Assay: soluble on expression in E. coli; label from the status in PepcDB or PDB records

Sequence | soluble on expression in E. coli
MGSDKIHHHHHHMKILITGANGQLGREIQKQLKGKNVEVIPTDVQDLDITNVLAVNKFFNEKKPNVVINCAAHTAVDKCEEQYDLAYKINAIGPKNLAAAAYSVGAEIVQISTDYVFDGEAKEPITEFDEVNPQSAYGKTKLEGENFVKALNPKYYIVRTAWLYGDGNNFVKTMINLGKTHDELKVVHDQVGTPTSTVDLARVVLKVIDEKNYGTFHCTCKGICSWYDFAVEIFRLTGIDVKVTPCTTEEFPRPAKRPKYSVLRNYMLELTTGDITREWKESLKEYIDLLQM | soluble
MGSDKIHHHHHHMFLTKVSLLDHPESLPGYLSSLAIVEYLHEQPLEFRAPITVITGENGVGKSTLVEALAVGMRLNPSGGSRHANFGREGDIVSSLHQSLKLVRRENPRDAFFFRGETMYNVASYYEELMGEKNMHDLHKMSHGESVFAVIDRRFNNQGFFVLDEPEAGLSMLRQLELLGKLGNLARGGAQIIMATHSPILLAIPGAEILEITSSGVAKVNFEDAEAVRAAREFVADPRGTAAFLTAEEDHQ | not soluble
MSLKQAIFVMMDQYADWEGAHLSSQLNQMTDWTVKTASNQPEVTSIGGWTTRVDYQISELNPEMTLLVLIGGNAWQHDDPRLTALIQQCLQRKVIVGAICGAVDYLARNGLLTGYRHTGNAQFSWQSFPKYQNPTDFELQQVVVDRQLVTANGTAALSFTSAVLKASGQLTIAAKQALDLQQLGYYDNTETHLNEGHHHHHH | not soluble
MARSITMQQRIEFGDCNPAGIVWYPNYHRWLDAASRNYFIKCGLPPWRQTVVERGIVGTPIVSCNASFVCTASYDDVLTIETCIKEWRRKSFVQRHSVSRTTPGGDVQLVMRADEIRVFAMNDGERLRAIEVPADYIELCS | soluble
SEPTAPSLTEEDLTEVKKDALENLRVYLCEKIIAERHFDHLRAKKILSREDTEEISCRTSSRKRAGKLLDYLQENPKGLDTLVESIRREKTQNFLIQKITDEVLKLRNIKLEHLKGLKCSSCEPFPDGATNNLSRSNSDESNFSEKLRASTVMYHPEGESSTTPFFSTNSSLNLPVLEVGRTENTIFSSTTLPRPGDPGAPPLPPDLQLEEEGTCANSSEMFLPLRSRTVSRQ | soluble
MASMQKLINSVQNYAWGSKTALTELYGIANPQQQPMAELWMGAHPKSSSRITTANGETVSLRDAIEKNKTAMLGEAVANRFGELPFLFKVLCAAQPLSIQVHPNKRNSEIGFAKENAAGIPMDAAERNYKDPNHKPELVFALTPFLAMNAFREFSDIVSLLQPVAGAHSAIAHFLQVPNAERLSQLFASLLNMQGEEKSRALAVLKAALNSQQGEPWQTIRVISEYYPDDSGLFSPLLLNVVKLNPGEAMFLFAETPHAYLQGVALEVMANSDNVLRAGLTPKYIDIPELVANVKFEPKPAGELLTAPVKSGAELDFPIPVDDFAFSLHDLALQETSIGQHSAAILFCVEGEAVLRKDEQRLVLKPGESAFIGADESPVNASGTGRLARVYNKL | soluble
MSLTFKLRETIKINHKKVQRIMQWLGLKGKCKTQKYRSYQGEVGHIADNLLQRDFTATQPNEKWTTDITEFKCAEGKLYLSPIKDLFNNEIIAYDLARSPNFEQITRMMKQAVARLEGAKPILHSDQGWQYQMIGYQNILRENGIQQSMSRKGNCLYNSAMESFFGRLKTECYYGKRFETFEQLEKTIHEYIHYYNHERIQGKLKGLSPVNYRTQSLNEGHHHHHH | not soluble
MDAYPEAEAPPQSIVELVPVLIAVTDGGLRVLTVAQGMLLPNGPLSPLRNSLQAGVKLWVAKQTSQPMGYVEQLYTFVDTHRRNEHGMPVLYVSYLGLVREAADSILHPDAKWQDCYGYFPWEDLRTDGGQRDAVVGRLRIWANSADTEEVRQKRLKRIHLCWGVEPENWSEEYVLQRYEMLYESGLIAEAAEPQANFDFALTGQPMRHDHRRVLATALSRLRAKIKYRPVIFELMPPEFTLLQLQNSVEAISGRLLHKQNFRRQIQQQNLIEPSDTGVSGSKGRPAQLCRFRDDVLPDRLISDIGLPLGSR | not soluble
MSLHGVPFGTVPPMGTIGLIAAMPDEIRPFLRLASPAARLHGGRFPIWRLRVGNDDIVLVESGMGIDRATAATDALVAAASPVAILSFGFGGAALPGLKVGDLAVGMTSWFAGTEGIVLRRGIDRNLAEKLAEELNRICNGVTRGEIITSARILKKGDLAHSLPNGISSPILDMETAAVAEAAHRRGIPIVALRAISDDAEEELSFSLDEFTDDDMAIRPRKVLATIARKEGHHHHHH | soluble
MAHHHHHHMWGFEAYAEGLSATLNIHGAPLTGVAPQAGESAPLAPPRCLWKKNRNNYLFDAQGKLLSAAEAHSPTIWRTHHAFSGRCALVNPTAPATGGAAAQSFGAPGWAEQAWTAYQSWSVGFRLSSTTTDEPHILLSVAPAYFPNLVSATGEIRKADAATLASLPCAPSAEEEVIYNKRMLETPLIWEEPYALSVECTTHGVFLWSDHWGIFGRKIADRCLEVRQGEVRQSGIATLPSPGPSPSSAAADEELALVAYDAALRLRWSAAGPGSRSSTDGGSARAVAPTLSVELKTGGDAAAGGAAPTCEEKVGEELWQHLVDLPLSLDEVACKAAFRPYVTLMEGGDAVELL | not soluble
MEALKRKIEEEGVVLSDQVLKVDSFLNHQIDPLLMQRIGDEFASRFAKDGITKIVTIESSGIAPAVMTGLKLGVPVVFARKHKSLTLTDNLLTASVYSFTKQTESQIAVSGTHLSDQDHVLIIDDFLANGQAAHGLVSIVKQAGASIAGIGIVIEKSFQPGRDELVKLGYRVESLARIQSLEEGKVSFVQEVHS | soluble
MGHHHHHHSHMLSHNTMMKQRKQQATAIMKEVHGNDVDGMDLGKKVSIPRDIMLEELSHLSNRGARLFKMRQRRSDKYTFENFQYQSRAQINHSIAMQNGKVDGSNLEGGSQQAPLTPPNTPDPRSPPNPDNIAPGYSGPLKEIPPEKFNTTAVPKYYQSPWEQAISNDPELLEALYPKLFKPEGKAELPDYRSFTRVATPFGGFEKASRMVKFKVPDFELLLLTDPRFMSFVNPLSGRRSFNRTPKGWISENIPIVITTEPTDDTTVPESEDL | not soluble
MSLNELRKRVEIERSLHEAEFKALSYQINPHFLFNVLNTIGRLAFLEDAQRTETMVHDFSDMMRYLLRKNSHGLITLRNEINYVNNYMSIQKVRMRDRFDYLCDIPEKYLDVVCPFLILQPLVENFFNYVVEPRDSNSHLLIRATDDGLNVIIEVTDNGDGIAPDTINRILSGDQKLQKGSIGINNIKNRLKLLFGESYGLEIMSPNKPRMGTTIKLRFPMQEAEGHHHHHH | soluble
MGSDKIHHHHHHMKDNFFGREYDIAPAGGETGQAFVATHEDEKFFLKRNSSPFLAALSVENIVPKLVWTRRVENGDVITAQKWVNCHILTREEMVGPRVAKLLAKIHHSENLRHMLEKIENCYFSAHQLLARLKAEMKAKNEANNVMQTAIEYLERNITAVEKADYVVCHGDVNHNNWIISEENELFLVDWDGAMLADAANDLGMILYQYIPREGWDEWLSNYGTTLTSELHRKLKWYTLCQTVMQLTTNQSEEAYERAKQIFQNAIEDDEV | not soluble
MSNLSGTDKSVILLMTIGEDRAAEVFKHLSTREVQALSTAMANVRQISNKQLTDVLSEFEQEAEQFAALNINANEYLRSVLVKALGEERASSLLEDILETRDTTSGIETLNFMEPQSAADLIRDEHPQIIATILVHLKRSQAADILALFDERLRHDVMLRIATFGGVQPAALAELTEVLNGLLDGQNLKRSKMGGVRTAAEIINLMKTQQEEAVITAVREFDGELAQKIIDEMFLFENLVDVDDRSIQRLLQEVDSESLLIALKGAEPPLREKFLRNMSQRAADILRDDLANRGPVRLSQVENEQKAILLIVRRLAETGEMVIGSGEDTYV | not soluble
MGSDKIHHHHHHMPENYTPAAAATGTWTEEEIRHQPRAWIRSLTNIDALRSALNNFLEPLLRKENLRIILTGAGTSAFIGDIIAPWLASHTGKNFSAVPTTDLVTNPMDYLNPAHPLLLISFGRSGNSPESVAAVELANQFVPECYHLPITCNEAGALYQNAINSDNAFALLMPAETHDRGFAMTSSITTMMASCLAVFAPETINSQTFRDVADRCQAILTSLGDFSEGVFGYAPWKRIVYLGSGGLQGAARESALKVLELTAGKLAAFYDSPTGFRHGPKSLVDDETLVVVFVSSHPYTRQYDLDLLAELRRDNQAMRVIAIAAESSDIVAAGPHIILPPSRHFIDVEQAFCFLMYAQTFALMQSLHMGNTPDTPSASGTVNRVVQGVIIHPWQA | not soluble
MGSDKIHHHHHHMTESSINLLFSIDNRFVEQFKVTLYSLYQNTSNKNLKIYMLQKELLADHKAIERFCYQLGLSYKPIIIGEEDFKDAPVSDRYPETIYYRLLAQDYLPKSLDKILYLDADILCLNDIAPLYQMDMKNYIYAAASHVSDKSITDIVNKLRLNNFEAEGYFNSGVLLMNLEQCRQKIKPQDIMNYISRKGNTLLLPDQDVLNALYGTKTHLIPDEIYNYDARYNIIYFTRSLGEWDLDWVIENTVFLHFCGKDKPWRKDYKGRYAALYKHYQHRVKILEK | not soluble
GGSHMELPGSSMKPSGEDQAALAAGPWEECFQAAVQLALRAGQIIRKALTEEKRVSTKTSAADLVTETDHLVEDLIISELRERFPSHRFIAEEAAASGAKCVLTHSPTWIIDPIDGTCNFVHRFPTVAVSIGFAVRQELEFGVIYHCTEERLYTGRRGRGAFCNGQRLRVSGETDLSKALVLTEIGPKRDPATLKLFLSNMERLLHAKAHGVRVIGSSTLALCHLASGAADAYYQFGLHCWDLAAATVIIREAGGIVIDTSGGPLDLMACRVVAASTREMAMLIAQALQTINYGRDDEK | soluble
MEFFFFIDVYADRELVDYYIVTFKLDDLSSVELTGSQGKYYIRGIRDWEKFKEEAYDITLYELGDEVDRFKDIETALREAYRIAIGEAVRRGAKNIVPAIGFGNPPPEVVERVYPEELKFEKFPEDLDAFLDRIVKEVSLETTERSKDDDEIPF | soluble
MSDGERVLKIPVEYFEDGWKKGEAVITKDAISFAGKTIRFKEIQDLERLKHEGRDAIRIKKDADYFIDFGSRQAQIFRYLAFNLKSDRFAVYFLSPATRGGVVVSDSKWEKGYLSITDEALWFLSSSKQIRISIQNLGSVEKDIRTVGKKQRVVLVVTHVENGEVITSFVLCPETTMDMLQEYIQNFIEKSKPKEKLSEVEEQILTMVYTGVDSVSVESILGVTTEELNKMYDRLVNLGLARVVKIRKEIELTPRGVALVSEIMKKAAR | not soluble
MGSDKIHHHHHHMSQDTILLIWDRIGDYHLSRVKACEKLLGAPVFTADLAGTDNLYKWDSIAKTTHTVLSSKPAEQSDIWNRFRTFRRIIKTHSIAVVAMPYGRTEYHIFLLYARLKGIRTIIFSESWYSRGKLKDFLKSLLLKSLGNYFFVSGKRAFDHFTKNYKINPEKIETGYSVVDNNHFQRRLFTEKKYVLTIARYSEEKNLSFLIDSYAKSVISNTYNLMLIGEGPLRPALQSQIDILGLSDRVQLAGWVPYAALPKAYAEAVVFVLPSSFEPWGLVVNEAMSAGLPILVSDACGCMPELVAEGVNGWSFNSNTQQELIERLNAFAALSEKGIEITGKNSMQLIRNYTPDTWAGSIARLAQAGR | not soluble
MKRFNVLKYIRTTKANIQTIAMPLTTKPLSLKINAALFDVDGTIIISQPAIAAFWRDFGKDKPYFDAEHVIHISHGWRTYDAIAKFAPDFADEEYVNKLEGEIPEKYGEHSIEVPGAVKLCNALNALPKEKWAVATSGTRDMAKKWFDILKIKRPEYFITANDVKQGKPHPEPYLKGRNGLGFPINEQDPSKSKVVVFEDAPAGIAAGKAAGCKIVGIATTFDLDFLKEKGCDIIVKNHESIRVGEYNAETDEVELIFDDYLYAKDDLLKW | soluble
